Laboratory results as given in IntAct's records for PubMed 22939624.

B1: non-specific protein-tyrosine kinase (Homo sapiens), A9UEZ6 (parent)
chain: MVDPVGFAEAWKAQFPDSEPPRMELRSVGDIEQELERCKASIRRLEQEVNQERFRMIYLQTLLAKEKKSYDRQRWGFRRAAQAPDGASEPRASASRPQPAPADGADPPPAEEPEARPDGEGSPGKARPGTARRPGAAASGERDDRGPPASVAALRSNFERIRKGHGQPGADAEKPFYVNVEFHHERGLVKVNDKEVSDRISSLGSQAMQMERKKSQHGAGSSVGDASRPPYRGRSSESSCGVDGDYEDAELNPRFLKDNLIDANGGSRPPWPPLEYQPYQSIYVGGMMEGEGKGPLLRSQSTSEQEKRLTWPRRSYSPRSFEDCGGGYTPDCSSNENLTSSEEDFSSGQSSRVSPSPTTYRMFRDKSRSPSQNSQQSFDSSSPPTPQCHKRHRHCPVVVSEATIVGVRKTGQIWPNDGEGAFHGDADGSFGTPPGYGCAADRAEEQRRHQDGLPYIDDSPSSSPHLSSKGRGSRDALVSGALESTKASELDLEKGLEMRKWVLSGILASEETYLSHLEALLLPMKPLKAAATTSQPVLTSQQIETIFFKVPELYEIHKEFYDGLFPRVQQWSHQQRVGDLFQKLASQLGVYRVLGYNHNGEWCEAQTKNGQGWVPSNYITPVNSLEKHSWYHGPVSRNAAEYLLSSGINGSFLVRESESSPGQRSISLRYEGRVYHYRINTASDGKLYVSSESRFNTLAELVHHHSTVADGLITTLHYPAPKRNKPTVYGVSPNYDKWEMERTDITMKHKLGGGQYGEVYEGVWKKYSLTVAVKTLKEDTMEVEEFLKEAAVMKEIKHPNLVQLLGVCTREPPFYIITEFMTYGNLLDYLRECNRQEVNAVVLLYMATQISSAMEYLEKKNFIHRDLAARNCLVGENHLVKVADFGLSRLMTGDTYTAHAGAKFPIKWTAPESLAYNKFSIKSDVWAFGVLLWEIATYGMSPYPGIDLSQVYELLEKDYRMERPEGCPEKVYELMRACWQWNPSDRPSFAEIHQAFETMFQESSISDEVEKELGKQGVRGAVSTLLQAPELPTKTRTSRRAAEHRDTTDVPEMPHSKGQGESDPLDHEPAVSPLLPRKERGPPEGGLNEDERLLPKDKKTNLFSALIKKKKKTAPTPPKRSSSFREMDGQPERRGAGEEEGRDISNGALAFTPLDTADPAKSPKPSNGAGVPNGALRESGGSGFRSPHLWKKSSTLTSSRLATGEEEGGGSSSKRFLRSCSASCVPHGAKDTEWRSVTLPRDLQSTGRQFDSSTFGGHKSEKPALPRKRAGENRSDQVTRGTVTPPPRLVKKNEEAADEVFKDIMESSPGSSPPNLTPKPLRRQVTVAPASGLPHKEEAGKGSALGTPAAAEPVTPTSKAGSGAPGGTSKGPAEESRVRRHKHSSESPGRDKGKLSRLKPAPPPPPAASAGKAGGKPSQSPSQEAAGEAVLGAKTKATSLVDAVNSDAAKPSQPGEGLKKPVLPATPKPQSAKPSGTPISPAPVPSTLPSASSALAGDQPSSTAFIPLISTRVSLRKTRQPPERIASGAITKGVVLDSTEALCLAISRNSEQMASHSAVLEAGKNLYTFCVSYVDSIQQMRNKFAFREAINKLENNLRELQICPATAGSGPAATQDFSKLLSSVKEISDIVQR

Variants of: B1
Conditions: with hs90b_human HSP90AB1, P08238
Chain of hs90b_human HSP90AB1, P08238 (P08238 whole entry): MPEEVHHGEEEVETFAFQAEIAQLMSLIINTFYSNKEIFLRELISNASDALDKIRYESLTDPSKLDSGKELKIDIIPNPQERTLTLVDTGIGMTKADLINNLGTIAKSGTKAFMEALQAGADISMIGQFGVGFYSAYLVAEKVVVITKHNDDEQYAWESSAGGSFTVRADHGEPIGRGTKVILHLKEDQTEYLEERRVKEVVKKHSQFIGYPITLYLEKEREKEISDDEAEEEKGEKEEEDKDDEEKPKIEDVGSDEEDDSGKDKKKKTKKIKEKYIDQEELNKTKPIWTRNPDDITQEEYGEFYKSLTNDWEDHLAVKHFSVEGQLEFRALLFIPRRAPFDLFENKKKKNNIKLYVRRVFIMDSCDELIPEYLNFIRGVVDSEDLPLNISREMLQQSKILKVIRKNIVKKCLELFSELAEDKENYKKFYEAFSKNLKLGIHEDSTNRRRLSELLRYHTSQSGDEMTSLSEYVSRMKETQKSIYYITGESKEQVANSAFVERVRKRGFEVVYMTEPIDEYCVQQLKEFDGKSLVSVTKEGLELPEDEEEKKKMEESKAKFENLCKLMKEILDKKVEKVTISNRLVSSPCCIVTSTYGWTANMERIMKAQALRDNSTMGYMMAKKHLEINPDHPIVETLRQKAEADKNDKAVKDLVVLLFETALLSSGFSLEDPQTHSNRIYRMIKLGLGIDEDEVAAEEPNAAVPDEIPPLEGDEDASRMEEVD

| Variant | effect of a mutation on the interaction |
| --- | --- |
| M975I | increasing interaction |
| M747I | decreasing interaction |
